Publication PMC4257621, “Structural implications of the C-terminal tail in the catalytic and stability properties of manganese peroxidases from ligninolytic fungi” (Acta Crystallographica Section D: Biological Crystallography, 2014)

Substrate: CCn1c(=NN=c2sc3cc(S(=O)(=O)O)ccc3n2CC)sc2cc(S(=O)(=O)O)ccc21
Experiment: purified protein
Type: biochemical, Gelatoporia subvermispora
Conditions: 0.1 M tartrate pH 3.5, 25°C, 0.1 mM H2O2, no Mn2+, micro and ± signs lost in table, µM supported by b43

Protein	Km [µM]	kcat [s⁻¹]	kcat/Km [M⁻¹ s⁻¹]
MnP6 short variant (Gelatoporia subvermispora B; D200V) (protein) AVCSDGTRVSNAVCCDFVSLGQDLQSMVLQGDCGEDAHEIIRLTFHDAVAISRKLGPSAGGGADGSMLLFPLVEPEFAASNGIDDSVNNLIPFLSLHPTISAGDLVQFAGAVALSNCPGAPRVQFLAGRPNHTIAAIDGLIPEPQDNVTSILERFDDAGGFTPFEVVSLLASHTIARAVKVDPTLDAAPFDTTPFTFDSQIFLEVLLKGVGFPGLDNNTGEVSSPLPLGDTSTGGKDTGLMRLQSDFALAHDPRTACFWQGFVDQQEFMSQSFASAFAKLAVLGHNTDDLIDCSEVVPVPKPAVDKPTTFPATTGPQDLELSCLAERFPTLSVDPGAQETLIPHCSD	288 ± 12	76 ± 1	263000
MnP13 (short) (Gelatoporia subvermispora B) (protein) VTCPDGVNTVANAACCPLFAVRDDIQESLFDGGKCGEEVHESLRLTFHDAIGFSPSLTAQGKFGGGGADGSIAIFESIETGYHANLGIDEIINEQATFILKHNMTAGDFIQFAGAVGVSNCPGAPQLEFLLGRPAATAPAPDKTVPEPFDTVDSILARFGDAGFSPQEVIALLASHSVAAADHVDPAIPGTPFDSTPSDFDPQIFIEVQLRGTLFPGTGGNQGEVESPYPGEIRLQSDHNLARDSRTACFWQSLANNQQQMQAQFKAAMAKLAVLGQDVSQMVDCSDVIPVPLPPATTPHIPAGLSQNNIEQACATAAFPTLPIDVGPQTSIPPVPGS	2440 ± 200	93 ± 3	38000
